Laboratory results reported in US20040234530.

Biological target: C1-esterase inhibitor (human plasma protease C1 inhibitor), purified or in human serum (UniProt P05155)
Sequence (P05155 23-500): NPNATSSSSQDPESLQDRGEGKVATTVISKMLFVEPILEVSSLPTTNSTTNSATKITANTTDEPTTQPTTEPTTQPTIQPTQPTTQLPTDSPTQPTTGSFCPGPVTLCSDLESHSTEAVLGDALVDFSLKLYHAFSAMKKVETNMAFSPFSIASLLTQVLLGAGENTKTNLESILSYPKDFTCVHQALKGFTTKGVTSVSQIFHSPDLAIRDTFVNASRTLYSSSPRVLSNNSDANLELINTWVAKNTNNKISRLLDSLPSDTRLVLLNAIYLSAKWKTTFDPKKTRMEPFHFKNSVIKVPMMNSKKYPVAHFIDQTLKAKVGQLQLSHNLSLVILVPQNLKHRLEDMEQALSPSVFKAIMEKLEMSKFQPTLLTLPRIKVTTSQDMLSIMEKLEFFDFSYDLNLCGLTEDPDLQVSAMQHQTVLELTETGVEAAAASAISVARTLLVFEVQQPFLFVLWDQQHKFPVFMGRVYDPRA

Substance	cleavage of C1-INH (immunoblot)	kallikrein activity (cleavage of chromogenic substrate S-2302)
StcE E435D-His (from pTEG1 in BL21(DE3), strain WAM2726)	While StcE-His is able to degrade C1-INH, we observed no such cleavage with the mutant protein	
purified kallikrein (Calbiochem)		ranging from 88.8% (±2.6% SEM) to 10.3% (±1.3% SEM) activity
